Test results reported in patent publication US8329186B2, “Treatment of inflammation using BST2 inhibitor” (Isu Abxis Co., Ltd, priority 2004, dated 2012).

Tested on: IL-4, IL-5 and IL-13
Test: Ovalbumin-induced mouse model of asthma: cytokines in lung tissue (immunoblot)
Assay type: in vivo
Conditions: ovalbumin-sensitized asthmatic mice
Procedure: A mouse model of asthma was prepared by sensitizing mice (C57B6, 8 weeks) with ovalbumin. In detail, mice were initially sensitized for five continuous days by intranasal injection of ovalbumin. After three weeks, mice were intranasally sensitized again with ovalbumin for five continuous days. One week after the secondary sensitization, mice were challenged intranasally with ovalbumin three times every 24 hrs to induce asthma. Herein, a Bst2 decoy was intravenously injected into mice 30 min before sensitization with ovalbumin, and was injected into mice 30 min before the first sensitization and the last injection of ovalbumin. Three days after the last injection, serum samples, lung tissues, and the like were collected from mice.
When a Bst2 or Damp1 decoy was injected into a mouse model of asthma which was induced by sensitization and challenge with ovalbumin, expression levels of cytokines (interleukin-4 (IL-4), interleukin-5 (IL-5) and interleukin-13 (IL-13)) were measured as follows. […] The bound primary antibodies were detected with a HRP-conjugated secondary antibody (anti-rabbit HRP-conjugated IgG) using ECL reagent.
Expression of 11-4, IL-5 and IL-13 was measured in the murine asthma model as described in Example 8-3 after injection with Bst2 decoy or Bst2 decoy Fc fusion proteins.

B1: Bst2 decoy: soluble Bst2 protein fragment having the amino acid sequence of SEQ ID NO:1; extracellular region of human Bst2, six-histidine tag (protein)
chain: NSEACRDGLRAVMECRNVTHLLQQELTEAQKGFQDVEAQAATCNHTVMALMASLDAEKAQGQKKVEELEGEITTLNHKLQDASAEVERLRRENQVLSVRIADKKYYPSSQDHHHHHH
  cytokine levels (IL-4, IL-5, IL-13) in lung tissue: decreased with increasing doses
